Starred links: 1 amine or outer side, 2 acyl side, 3 side chain; linkers in the order of their positions; H or OH if unused. Non-standard residues stand in square brackets, D forms with d. Groups on a side chain read outwards from the residue. No end group written: not given here. *: point of attachment. C20 diacid = O=C(O)CCCCCCCCCCCCCCCCCCC(=O)*; C18 diacid = O=C(O)CCCCCCCCCCCCCCCCC(=O)*; γGlu = O=C(O)[C@H](CCC(=O)[*:2])N[*:1]; 4Pal = N[C@@H](Cc1ccncc1)C(=O)O; αMeL = CC(C)C[C@](C)(N)C(=O)O; AEEA = NCCOCCOCC(=O)O; Aib = CC(C)(N)C(=O)O
T1: human glucose-dependent insulinotropic polypeptide (GIP) receptor (human, UniProt P48546 22-466)
T1 construct: whole, on cells; Assayed as crude membranes of stably transfected CHO cells; also called hGIPR; human GIP receptor
T1 sequence (looked up): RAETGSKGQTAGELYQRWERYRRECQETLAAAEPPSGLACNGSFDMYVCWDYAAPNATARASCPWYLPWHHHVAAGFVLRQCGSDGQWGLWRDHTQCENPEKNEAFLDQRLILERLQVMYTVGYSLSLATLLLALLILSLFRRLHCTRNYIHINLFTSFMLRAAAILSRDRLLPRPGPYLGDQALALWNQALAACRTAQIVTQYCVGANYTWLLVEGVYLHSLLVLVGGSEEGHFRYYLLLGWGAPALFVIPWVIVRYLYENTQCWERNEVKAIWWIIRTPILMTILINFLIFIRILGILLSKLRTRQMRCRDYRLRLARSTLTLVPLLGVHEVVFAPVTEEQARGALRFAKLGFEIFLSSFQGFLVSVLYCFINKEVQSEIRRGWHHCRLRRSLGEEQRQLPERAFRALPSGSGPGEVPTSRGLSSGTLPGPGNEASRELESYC

B1: Example 55 (peptide)
peptide: YXEGTXISDYSIXLDKKHQXDFVEXLLAGGPSSGAPPPS
modifications: Aib2; Iva6; αMeL13; K17((2-[2-(2-Amino-ethoxy)-ethoxy]-acetyl)2-(γ-Glu)-CO-(CH2)18-CO2H); Aib20; 4-Pal25; C-terminal amide
B2: Example 49 (peptide)
peptide: Y[Aib]EGTFISDYSI[αMeL]LDKK([AEEA-AEEA-γGlu-C18 diacid])HQ[Aib]DFVE[4Pal]LLAGGPSSGAPPPS-NH2
modifications: N-terminus assumed
SMILES: CC[C@H](C)[C@H](NC(=O)[C@H](Cc1ccccc1)NC(=O)[C@@H](NC(=O)CNC(=O)[C@H](CCC(=O)O)NC(=O)C(C)(C)NC(=O)[C@@H](N)Cc1ccc(O)cc1)[C@@H](C)O)C(=O)N[C@@H](CO)C(=O)N[C@@H](CC(=O)O)C(=O)N[C@@H](Cc1ccc(O)cc1)C(=O)N[C@@H](CO)C(=O)N[C@H](C(=O)N[C@@](C)(CC(C)C)C(=O)N[C@@H](CC(C)C)C(=O)N[C@@H](CC(=O)O)C(=O)N[C@@H](CCCCN)C(=O)N[C@@H](CCCCNC(=O)COCCOCCNC(=O)COCCOCCNC(=O)CC[C@H](NC(=O)CCCCCCCCCCCCCCCCC(=O)O)C(=O)O)C(=O)N[C@@H](Cc1c[nH]cn1)C(=O)N[C@@H](CCC(N)=O)C(=O)NC(C)(C)C(=O)N[C@@H](CC(=O)O)C(=O)N[C@@H](Cc1ccccc1)C(=O)N[C@H](C(=O)N[C@@H](CCC(=O)O)C(=O)N[C@@H](Cc1ccncc1)C(=O)N[C@@H](CC(C)C)C(=O)N[C@@H](CC(C)C)C(=O)N[C@@H](C)C(=O)NCC(=O)NCC(=O)N1CCC[C@H]1C(=O)N[C@@H](CO)C(=O)N[C@@H](CO)C(=O)NCC(=O)N[C@@H](C)C(=O)N1CCC[C@H]1C(=O)N1CCC[C@H]1C(=O)N1CCC[C@H]1C(=O)N[C@@H](CO)C(N)=O)C(C)C)[C@@H](C)CC
B3: Example 22 (peptide)
peptide: Y[Aib]EGTFISDYSILLDKK([AEEA-AEEA-γGlu-C18 diacid])HQ[Aib]DFVE[4Pal]LLAGGPSSGAPPPS-NH2
modifications: N-terminus assumed
SMILES: CC[C@H](C)[C@H](NC(=O)[C@H](CO)NC(=O)[C@H](Cc1ccc(O)cc1)NC(=O)[C@H](CC(=O)O)NC(=O)[C@H](CO)NC(=O)[C@@H](NC(=O)[C@H](Cc1ccccc1)NC(=O)[C@@H](NC(=O)CNC(=O)[C@H](CCC(=O)O)NC(=O)C(C)(C)NC(=O)[C@@H](N)Cc1ccc(O)cc1)[C@@H](C)O)[C@@H](C)CC)C(=O)N[C@@H](CC(C)C)C(=O)N[C@@H](CC(C)C)C(=O)N[C@@H](CC(=O)O)C(=O)N[C@@H](CCCCN)C(=O)N[C@@H](CCCCNC(=O)COCCOCCNC(=O)COCCOCCNC(=O)CC[C@H](NC(=O)CCCCCCCCCCCCCCCCC(=O)O)C(=O)O)C(=O)N[C@@H](Cc1c[nH]cn1)C(=O)N[C@@H](CCC(N)=O)C(=O)NC(C)(C)C(=O)N[C@@H](CC(=O)O)C(=O)N[C@@H](Cc1ccccc1)C(=O)N[C@H](C(=O)N[C@@H](CCC(=O)O)C(=O)N[C@@H](Cc1ccncc1)C(=O)N[C@@H](CC(C)C)C(=O)N[C@@H](CC(C)C)C(=O)N[C@@H](C)C(=O)NCC(=O)NCC(=O)N1CCC[C@H]1C(=O)N[C@@H](CO)C(=O)N[C@@H](CO)C(=O)NCC(=O)N[C@@H](C)C(=O)N1CCC[C@H]1C(=O)N1CCC[C@H]1C(=O)N1CCC[C@H]1C(=O)N[C@@H](CO)C(N)=O)C(C)C
B4: Example 21 (peptide)
peptide: Y[Aib]EGTFISDYSIALDKK([AEEA-AEEA-γGlu-C18 diacid])HQ[Aib]DFVE[4Pal]LLAGGPSSGAPPPS-NH2
modifications: N-terminus assumed
SMILES: CC[C@H](C)[C@H](NC(=O)[C@H](CO)NC(=O)[C@H](Cc1ccc(O)cc1)NC(=O)[C@H](CC(=O)O)NC(=O)[C@H](CO)NC(=O)[C@@H](NC(=O)[C@H](Cc1ccccc1)NC(=O)[C@@H](NC(=O)CNC(=O)[C@H](CCC(=O)O)NC(=O)C(C)(C)NC(=O)[C@@H](N)Cc1ccc(O)cc1)[C@@H](C)O)[C@@H](C)CC)C(=O)N[C@@H](C)C(=O)N[C@@H](CC(C)C)C(=O)N[C@@H](CC(=O)O)C(=O)N[C@@H](CCCCN)C(=O)N[C@@H](CCCCNC(=O)COCCOCCNC(=O)COCCOCCNC(=O)CC[C@H](NC(=O)CCCCCCCCCCCCCCCCC(=O)O)C(=O)O)C(=O)N[C@@H](Cc1c[nH]cn1)C(=O)N[C@@H](CCC(N)=O)C(=O)NC(C)(C)C(=O)N[C@@H](CC(=O)O)C(=O)N[C@@H](Cc1ccccc1)C(=O)N[C@H](C(=O)N[C@@H](CCC(=O)O)C(=O)N[C@@H](Cc1ccncc1)C(=O)N[C@@H](CC(C)C)C(=O)N[C@@H](CC(C)C)C(=O)N[C@@H](C)C(=O)NCC(=O)NCC(=O)N1CCC[C@H]1C(=O)N[C@@H](CO)C(=O)N[C@@H](CO)C(=O)NCC(=O)N[C@@H](C)C(=O)N1CCC[C@H]1C(=O)N1CCC[C@H]1C(=O)N1CCC[C@H]1C(=O)N[C@@H](CO)C(N)=O)C(C)C
B5: Example 10 (peptide)
peptide: Y[dA]EGTFISDYSILLDKK([AEEA-AEEA-γGlu-C20 diacid])HQQDFVNWLLAGGPSSGAPPPS-NH2
modifications: N-terminus assumed
SMILES: CC[C@H](C)[C@H](NC(=O)[C@H](CO)NC(=O)[C@H](Cc1ccc(O)cc1)NC(=O)[C@H](CC(=O)O)NC(=O)[C@H](CO)NC(=O)[C@@H](NC(=O)[C@H](Cc1ccccc1)NC(=O)[C@@H](NC(=O)CNC(=O)[C@H](CCC(=O)O)NC(=O)[C@@H](C)NC(=O)[C@@H](N)Cc1ccc(O)cc1)[C@@H](C)O)[C@@H](C)CC)C(=O)N[C@@H](CC(C)C)C(=O)N[C@@H](CC(C)C)C(=O)N[C@@H](CC(=O)O)C(=O)N[C@@H](CCCCN)C(=O)N[C@@H](CCCCNC(=O)COCCOCCNC(=O)COCCOCCNC(=O)CC[C@H](NC(=O)CCCCCCCCCCCCCCCCCCC(=O)O)C(=O)O)C(=O)N[C@@H](Cc1c[nH]cn1)C(=O)N[C@@H](CCC(N)=O)C(=O)N[C@@H](CCC(N)=O)C(=O)N[C@@H](CC(=O)O)C(=O)N[C@@H](Cc1ccccc1)C(=O)N[C@H](C(=O)N[C@@H](CC(N)=O)C(=O)N[C@@H](Cc1c[nH]c2ccccc12)C(=O)N[C@@H](CC(C)C)C(=O)N[C@@H](CC(C)C)C(=O)N[C@@H](C)C(=O)NCC(=O)NCC(=O)N1CCC[C@H]1C(=O)N[C@@H](CO)C(=O)N[C@@H](CO)C(=O)NCC(=O)N[C@@H](C)C(=O)N1CCC[C@H]1C(=O)N1CCC[C@H]1C(=O)N1CCC[C@H]1C(=O)N[C@@H](CO)C(N)=O)C(C)C
B6: Example 35 (peptide)
peptide: Y[Aib]EGT[αMeL]ISDYSIALDKK([AEEA-AEEA-γGlu-C20 diacid])HQ[Aib]EFVNYLLATGPSSGAPPPS-NH2
modifications: N-terminus assumed
SMILES: CC[C@H](C)[C@H](NC(=O)[C@H](CO)NC(=O)[C@H](Cc1ccc(O)cc1)NC(=O)[C@H](CC(=O)O)NC(=O)[C@H](CO)NC(=O)[C@@H](NC(=O)[C@](C)(CC(C)C)NC(=O)[C@@H](NC(=O)CNC(=O)[C@H](CCC(=O)O)NC(=O)C(C)(C)NC(=O)[C@@H](N)Cc1ccc(O)cc1)[C@@H](C)O)[C@@H](C)CC)C(=O)N[C@@H](C)C(=O)N[C@@H](CC(C)C)C(=O)N[C@@H](CC(=O)O)C(=O)N[C@@H](CCCCN)C(=O)N[C@@H](CCCCNC(=O)COCCOCCNC(=O)COCCOCCNC(=O)CC[C@H](NC(=O)CCCCCCCCCCCCCCCCCCC(=O)O)C(=O)O)C(=O)N[C@@H](Cc1c[nH]cn1)C(=O)N[C@@H](CCC(N)=O)C(=O)NC(C)(C)C(=O)N[C@@H](CCC(=O)O)C(=O)N[C@@H](Cc1ccccc1)C(=O)N[C@H](C(=O)N[C@@H](CC(N)=O)C(=O)N[C@@H](Cc1ccc(O)cc1)C(=O)N[C@@H](CC(C)C)C(=O)N[C@@H](CC(C)C)C(=O)N[C@@H](C)C(=O)N[C@H](C(=O)NCC(=O)N1CCC[C@H]1C(=O)N[C@@H](CO)C(=O)N[C@@H](CO)C(=O)NCC(=O)N[C@@H](C)C(=O)N1CCC[C@H]1C(=O)N1CCC[C@H]1C(=O)N1CCC[C@H]1C(=O)N[C@@H](CO)C(N)=O)[C@@H](C)O)C(C)C

What follows are binders tested against T1, human glucose-dependent insulinotropic … (assay: SPA, displacement of [125I]-GIP from hGIPR membranes, 0.1% bacitracin).
With B1 the Ki was 0.0331 nM.
B2 showed a Ki of 0.0512 nM.
B3 showed a Ki of 0.219 nM.
For B4, the Ki was 1.46 nM.
B5 was tested, and the Ki was 0.159 nM.
With B6 the Ki was 0.0351 nM.

Each binder was assayed against T2, human GLP-1 receptor (human, UniProt P43220 24-463) (assay: SPA, displacement of [125I]-GLP-1 from hGLP-1R membranes, 0.1% bacitracin).
T2 construct: whole, on cells; Assayed as crude membranes of stably transfected HEK293 cells; also called hGLP1R; hGLP-1R
Protocol: The binding buffer contains 25 mM HEPES, pH 7.4, 2.5 mM CaCl₂, 1 mM MgCl₂, 0.1% (w/v) bacitracin, 0.003% (w/v) TWEEN®-20, and Roche Complete™ Protease Inhibitors without EDTA.
Data are analyzed using four-parameter (curve maximum, curve minimum, […], Hill slope) nonlinear regression routines (Genedata Screener, version 12.0.4, Genedata AG, Basal, Switzerland). […] Values for Kᵢ are reported as the geometric mean, with error expressed as the standard error of the mean (SEM) and n is equal to the number of independent replicates (determined in assays performed on different days). Geometric Means are calculated as follows: […]
With B1 the Ki was 262 nM.
For B2, the Ki was 596 nM.
Work on B3 yielded a Ki of 388 nM.
In the case of B4, the Ki is reported as 801 nM.
Binder B5 has a Ki of 60.7 nM.
For B6, the Ki was 177 nM.

— patent US20210032299A1 (Eli Lilly, published 2021)
